Test results: the nanobody polyreactivity screen of Harvey et al. (2022)

assay: yeast display, Sf9 membrane polyspecificity reagent, FACS + sequencing; frameworks hold sequencing errors
Method in brief: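 In a synthetic yeast display library (Saccharomyces cerevisiae BJ5465), nanobody expression was induced with galactose for 36–48 hours. FACS gates were set low and high (top ~1%) using anti-HA fluorescence for expression and streptavidin fluorescence for binding of the Sf9 membrane reagent. Each polyreactivity label is drawn from the gate of origin.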

Sequence | polyreactivity (PSR sort gate)
QVQLVESGGGLVQAGGSLRLSCAASGRIFWHYAMGWYRQAPGKERELVAAISSRGGSTYYADSVKGRFTISRDNAKNTVYLQMNSLKPEDTAVYYCAADRVDGGSYYHSGYWGQGTQVTVSS | high polyreactivity
QVQLVESGGGLVQAGGSLRLSCAASGRIFWLYAMGWYRQAPGKERELVAAITGIGGSTYYADSVKGRFTISRDNAKNTVYLQMNSLKPEDTAVYYCAARYPATYPSMGYWGQGTQVTVSS | low polyreactivity
QVQLVESGGGLVQAGGSLRLSCAASGRIFWPYARGWYRPAPGKERELVAAITSGGSTYYADSVKGRFTISRDNAKNTVYLQMNSLKQEDTAVYYCAKLSSGVSVPVAYGGIKRYNSWGQGTQVTVSS | low polyreactivity
QVQLVESGGGLVQAGGSLRLSCAASGRIFWQYAMGWYRQAPGKERELVAGITYRGGSTYYADSVKGRFTISRDNAKQTVYLLMNSLKPEDTAVYYCAADTYLSSQYSDRYGYDYWGQGTQVTVSS | high polyreactivity
QVQLVESGGGLVQAGGSLRLSCAASGRIFWRNTMGWYRQAPGKERELVAAITRTGGSTYYADSVKGRFTISRDNAKNTVYLQMNSLKPEDTAVYYCAAQQHYGDGYWGQGTQVTVSS | high polyreactivity
QVQLVESGGGLVQAGGSLRLSCAASGRIFWRYAMGWYRQAPGKERELVAAITSGGNTYYADSVKGRFTISRDNAKNTVYLQMNSLKPEDTAVYYCATVFSVQGWYFGMNYWGQGTQVTVSS | low polyreactivity
QVQLVESGGGLVQAGGSLRLSCAASGRIFWRYAMGWYRQAPGKERELVAAITWSVGSTYYADSVKGRFTISRDNAKNTVYLLMNSLKPEDTAVYYCATDVKNVRYRYRYDYWGQGTQVTVSS | low polyreactivity
QVQLVESGGGLVQAGGSLRLSCAASGRIFWSNAMGWYRQAPGKERELVAAIRNTCSTNYADSVKGRFTISRDNAKNTVYLQMISLKPEDTGVYYCAADRASYFTYAYGYWGQGTQVTVSS | high polyreactivity
QVQLVESGGGLVQAGGSLRLSCAASGRIFWSNAMGWYRQAPGKERELVATISSGGRTYYADSVKGRFTISRDNAKNTVYLQMNSLKPEDTAVYYCNATSGYKHAWRSENGYWGQGTQVTVSS | low polyreactivity
QVQLVESGGGLVQAGGSLRLSCAASGRIFWTYAMGWYRQAPGKERELVAAINSSDGTYYADSVKGRFTISRDNAKNTVYLQMNSLKPEDTAVYYCNADRDALVGYDYDYWGQVTQVTVSS | low polyreactivity
QVQLVESGGGLVQAGGSLRLSCAASGRIFWTYAMGWYSQAPGKERELVASITWSGGSTYYADSVKGRFTISRDNAKNTFYLQMNSLKPEDTAVYYCKTDVLAPYDSGYWGQGTQVTVSS | low polyreactivity
QVQLVESGGGLVQAGGSLRLSCAASGRIFWVNAMGWYIQAPGKERELVAVISRGGSTTYADSVKGRFTISRDNEKNTVYLQMNSLKPEDTAVYYCAADAYSHAFLYYGYDYWGQGTQVTVSS | low polyreactivity
QVQLVESGGGLVQAGGSLRLSCAASGRIFWWYSMGWYRQAPVKERELVAAISTGSRTYYADSVKGRFTISRDNAKNTVFLQMNSLKPEDTAVYYCVADGLYSVSRSSIFEYWGQGTQVTVSS | low polyreactivity
QVQLVESGGGLVQAGGSLRLSCAASGRIFWYNAMGWYRPAPGKERELVASITRGNNTYYADSVKGRFTISRDNAKTTVYLQMNSLKPEDTAVYYCAKRYIYRYYWGQGTQVTVSS | high polyreactivity
QVQLVESGGGLVQAGGSLRLSCAASGRIFWYNAMGWYRQAPGKERELVAGITRSGGRTYYADSVKGRFTISRDNAKNTVYLQMNSLKPEDTAVYYCAAAPYARRDYEYWGQGTQVTVSS | high polyreactivity
QVQLVESGGGLVQAGGSLRLSCAASGRIFWYNAMGWYRQAPGKERELVAGITSGGRTNYADSVKGRFTISRDNAKNTVYLQMNSLKPEDTAVYYCAADVPPGEVVTNDYWGQGTQVTVSS | low polyreactivity
